pKd: −log10 of the molar value.
Biological target: monomeric SARS-CoV-2 receptor binding domain (RBD) (SARS-CoV-2) (UniProt P0DTC2)

DH1047 antigen binding fragment (Fab)
pKd: > 10.70
